For one data set, the system named is Rtt109. Conditions: ref [13–14],[21–22]; cited from earlier work.
For a further data set, the system named is Asf1–H3:H4 complex. The experiment in a line: NMR 13C-HMQC. The data set is classed as binding, Asf1 Saccharomyces cerevisiae; histones Xenopus laevis. Conditions: Rtt109 added to Asf1–H3:H4–Vps75_2; 50 mM sodium citrate pH 6.5, 150 mM NaCl, 5 mM BME, 850 MHz, 298 K.
In data set [1] the test system is 15N-labeled H3 in the H3:H4 complex. The data set can be described thus: NMR 15N-HSQC CSPs of 15N-labeled histone H3 in the H3:H4 complex. Conditions: Rtt109 added to Asf1–H3:H4 (15N-labeled H3); 50 mM sodium citrate pH 6.2, 150 mM NaCl, 5 mM BME, 600 MHz, 298 K. The data set is classed as binding, Xenopus laevis.

In the case of “Asf1: Saccharomyces cerevisiae Asf1 (2–169), histone-specific chaperone”, in the data set with Rtt109, the “acetyltransferase activity alone / activation of Rtt109 by chaperones (in words)” value is on record as “strongly activated”. As to “Rtt109: full-length Saccharomyces cerevisiae Rtt109, fungal histone acetyltransferase”, in the data set on Asf1–H3:H4 complex, the “Asf1 CSPs upon addition of Rtt109 in the presence of Vps75 (in words)” value was “large Asf1 CSPs”. Moreover, in data set [1], the “competition with the H3 tail for Asf1 (in words)” value is on record as “can out-compete the H3 tail for the same interaction surface on Asf1”. For the same substance, in the data set with Rtt109, the “acetyltransferase activity alone / activation of Rtt109 by chaperones (in words)” value is “very low acetyltransferase activity”. In the case of “Vps75_2: Vps75 homodimer, histone chaperone (Saccharomyces cerevisiae)”, the “acetyltransferase activity alone / activation of Rtt109 by chaperones (in words)” value with Rtt109 is “strongly activated”.
